We go through eight molecules from patent publication US9988429B2, “Glucagon analogues” (Zealand Pharma A/S, priority 2013, dated 2018).

Assay [1] deals with T1, human glucagon-like peptide 1 receptor (GLP-1R) (Homo sapiens, UniProt P43220).
T1 construct: expressed in transfected cells
In words: GLP-1 receptor efficacy assay (cAMP AlphaScreen, CHO cells). It counts as cell-based. The settings on record: EC50 [GLP-1R] / EC50 [Glucagon-R], human receptors in CHO-K1. The procedure: The mammalian expression vectors encoding the Glucagon-R or the GLP-1-R were transfected into Chinese hamster ovary (CHO) cells by the Attractene method. Stably expressing clones were obtained by Zeocin selection (250 μg/mL) upon limited dilution of cells resistant to the selection pressure. […] One Glucagon-R expressing clone and one GLP-1-R expressing clone were chosen for compound profiling.
CHO cells expressing the human Glucagon-R, or human GLP-1-R were seeded 24 hours prior to the assay at 30,000 cells per well in 96-well microtiter plates in culture in 100 μl growth medium. On the day of analysis, growth medium was removed and the cells were washed once with 200 μl of assay buffer (Krebs-Ringer-buffer—KRBH). The buffer was removed and the cells were incubated for 15 min at room temperature in 10 μl KRBH (KRBH+10 mM HEPES, 5 mM NaHCO3, 0.1% (V/V) BSA) with 0.1 mM IBMX in deionized water containing increasing concentrations of test peptides. The reaction was stopped by the addition of lysis buffer (0.1% w/v BSA, 5 mM HEPES, 0.3% v/v Tween-20). After cell lysis for 10 min at room temperature, lysates were transferred to 384-well plates and 10 μl of acceptor/donorbead mixture as contained in the AlphaScreen™ cAMP Functional Assay Kit was added. After one hour of incubation at room temperature in the dark, the cAMP content was determined applying the AlphaScreen™ cAMP Functional Assay Kit from Perkin-Elmer according to manufacturer instructions. […] The GLP-1/glucagon ratio is calculated as defined earlier.

In assay [2] the target is human glucagon receptor (Glucagon-R) (human, UniProt P47871 26-477). In words: cell-based or functional assay.
Assay [3] addresses human glucagon-like peptide 1 receptor (GLP-1R) (human, UniProt P43220 24-463). In words: cell-based or functional assay.
In assay [4] the target is T2, endogenous GLP-1 receptor of a murine insulinoma cell line (murine, UniProt O35659 22-463).
T2 sequence (looked up): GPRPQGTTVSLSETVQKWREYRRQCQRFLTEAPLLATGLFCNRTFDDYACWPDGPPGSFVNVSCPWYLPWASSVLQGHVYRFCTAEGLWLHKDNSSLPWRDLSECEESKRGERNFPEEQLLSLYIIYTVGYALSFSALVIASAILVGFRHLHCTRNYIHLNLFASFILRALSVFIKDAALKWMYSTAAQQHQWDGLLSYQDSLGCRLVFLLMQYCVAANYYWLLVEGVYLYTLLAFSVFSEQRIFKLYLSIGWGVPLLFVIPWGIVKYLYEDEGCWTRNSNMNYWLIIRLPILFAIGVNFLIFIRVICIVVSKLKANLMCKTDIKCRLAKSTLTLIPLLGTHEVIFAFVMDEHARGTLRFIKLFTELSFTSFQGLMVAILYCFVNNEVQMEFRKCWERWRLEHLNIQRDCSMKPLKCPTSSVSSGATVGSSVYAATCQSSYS
In words: cell-based or functional assay.

The target of assay [5] is endogenous glucagon receptor of primary rat hepatocytes (rat, UniProt P30082 27-485). In words: cell-based or functional assay.

Starred links: 1 amine or outer side, 2 acyl side, 3 side chain; linkers in the order of their positions; H or OH if unused. Non-standard residues stand in square brackets, D forms with d. Residues, ends and D or L forms follow the SMILES beside them. Groups on a side chain read outwards from the residue. *: point of attachment. γGlu = O=C(O)[C@H](CCC(=O)[*:2])N[*:1]; Palmitoyl = CCCCCCCCCCCCCCCC(=O)*; Ac4c = NC1(C(=O)O)CCC1; Ac3c = NC1(C(=O)O)CC1

Chain of endogenous glucagon receptor of primary rat hepatocytes (P30082 27-485): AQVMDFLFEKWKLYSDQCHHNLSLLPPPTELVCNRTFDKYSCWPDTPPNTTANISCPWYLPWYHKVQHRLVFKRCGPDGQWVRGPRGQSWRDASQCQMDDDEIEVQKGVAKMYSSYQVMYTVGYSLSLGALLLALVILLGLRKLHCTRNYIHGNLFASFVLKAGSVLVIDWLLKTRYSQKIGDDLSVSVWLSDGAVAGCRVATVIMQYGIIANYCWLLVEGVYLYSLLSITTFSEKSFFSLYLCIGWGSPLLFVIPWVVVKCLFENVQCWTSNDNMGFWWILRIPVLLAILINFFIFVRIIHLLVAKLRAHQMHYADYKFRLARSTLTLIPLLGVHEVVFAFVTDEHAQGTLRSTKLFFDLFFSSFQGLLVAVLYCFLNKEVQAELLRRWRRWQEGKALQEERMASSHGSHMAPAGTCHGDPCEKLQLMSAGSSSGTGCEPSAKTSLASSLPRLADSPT
Chain of human glucagon receptor (Glucagon-R) (P47871 26-477): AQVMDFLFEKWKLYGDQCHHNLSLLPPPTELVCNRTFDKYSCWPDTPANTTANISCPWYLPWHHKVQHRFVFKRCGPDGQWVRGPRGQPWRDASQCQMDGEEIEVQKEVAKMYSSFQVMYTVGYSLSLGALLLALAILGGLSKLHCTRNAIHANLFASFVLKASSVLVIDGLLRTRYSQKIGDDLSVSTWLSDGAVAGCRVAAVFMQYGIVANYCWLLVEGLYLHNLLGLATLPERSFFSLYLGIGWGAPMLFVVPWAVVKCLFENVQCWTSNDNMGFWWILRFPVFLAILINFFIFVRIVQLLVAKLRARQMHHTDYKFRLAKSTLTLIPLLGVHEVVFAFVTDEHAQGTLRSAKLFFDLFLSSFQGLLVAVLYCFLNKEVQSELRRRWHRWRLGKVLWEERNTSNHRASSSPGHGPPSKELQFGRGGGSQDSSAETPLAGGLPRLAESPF
T1 sequence (P43220 24-463): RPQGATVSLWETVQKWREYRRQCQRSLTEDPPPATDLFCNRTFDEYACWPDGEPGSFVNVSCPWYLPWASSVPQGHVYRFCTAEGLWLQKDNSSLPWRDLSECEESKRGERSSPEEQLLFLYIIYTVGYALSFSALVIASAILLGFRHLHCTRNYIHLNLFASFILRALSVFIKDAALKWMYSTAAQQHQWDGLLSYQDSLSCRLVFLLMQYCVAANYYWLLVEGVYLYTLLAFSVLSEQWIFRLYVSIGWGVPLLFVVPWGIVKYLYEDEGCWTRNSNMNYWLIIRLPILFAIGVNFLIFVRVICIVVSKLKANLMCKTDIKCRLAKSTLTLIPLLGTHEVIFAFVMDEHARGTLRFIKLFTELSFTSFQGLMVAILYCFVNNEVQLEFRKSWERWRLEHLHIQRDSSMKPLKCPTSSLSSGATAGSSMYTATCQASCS

Turning to `CCCCCCCCCCCCCCCC(=O)N[C@@H](CCC(=O)NCCCC[C@H](NC(=O)[C@H](CO)NC(=O)[C@H](CC(=O)O)NC(=O)[C@H](CC(C)C)NC(=O)[C@H](Cc1ccc(O)cc1)NC(=O)[C@H](CCCCN)NC(=O)[C@H](CO)NC(=O)[C@H](Cc1ccc(O)cc1)NC(=O)[C@H](CC(=O)O)NC(=O)[C@H](CO)NC(=O)[C@@H](NC(=O)[C@H](Cc1ccccc1)NC(=O)[C@@H](NC(=O)CNC(=O)[C@H](Cc1c[nH]cn1)NC(=O)[C@H](C)NC(=O)[C@@H](N)Cc1c[nH]cn1)[C@@H](C)O)[C@@H](C)O)C(=O)N[C@@H](C)C(=O)N[C@@H](C)C(=O)N[C@@H](Cc1c[nH]cn1)C(=O)N[C@@H](CC(=O)O)C(=O)N[C@@H](Cc1ccccc1)C(=O)N[C@H](C(=O)N[C@@H](CCC(=O)O)C(=O)N[C@@H](Cc1c[nH]c2ccccc12)C(=O)N[C@@H](CC(C)C)C(=O)N[C@@H](CC(C)C)C(=O)N[C@@H](CO)C(=O)N[C@@H](C)C(N)=O)C(C)C)C(=O)O` [Compound 6] (H-HAHGTFTSDYSKYLDSK([γGlu-Palmitoyl])AAHDFVEWLLSA-NH2), the “Ratio GLP-1/Glucagon” value in assay [1] turned out to be 0.75.

B1: Compound 5: H-HSHGTFTSDYSKYLDS-K(Hexadecanoyl-isoGlu)-AAHDFVEWLLSA-NH2 (peptide)
peptide: H-HSHGTFTSDYSKYLDSK([γGlu-Palmitoyl])AAHDFVEWLLSA-NH2
SMILES: CCCCCCCCCCCCCCCC(=O)N[C@@H](CCC(=O)NCCCC[C@H](NC(=O)[C@H](CO)NC(=O)[C@H](CC(=O)O)NC(=O)[C@H](CC(C)C)NC(=O)[C@H](Cc1ccc(O)cc1)NC(=O)[C@H](CCCCN)NC(=O)[C@H](CO)NC(=O)[C@H](Cc1ccc(O)cc1)NC(=O)[C@H](CC(=O)O)NC(=O)[C@H](CO)NC(=O)[C@@H](NC(=O)[C@H](Cc1ccccc1)NC(=O)[C@@H](NC(=O)CNC(=O)[C@H](Cc1c[nH]cn1)NC(=O)[C@H](CO)NC(=O)[C@@H](N)Cc1c[nH]cn1)[C@@H](C)O)[C@@H](C)O)C(=O)N[C@@H](C)C(=O)N[C@@H](C)C(=O)N[C@@H](Cc1c[nH]cn1)C(=O)N[C@@H](CC(=O)O)C(=O)N[C@@H](Cc1ccccc1)C(=O)N[C@H](C(=O)N[C@@H](CCC(=O)O)C(=O)N[C@@H](Cc1c[nH]c2ccccc12)C(=O)N[C@@H](CC(C)C)C(=O)N[C@@H](CC(C)C)C(=O)N[C@@H](CO)C(=O)N[C@@H](C)C(N)=O)C(C)C)C(=O)O
For B1, the “EC50 hGCGR CHO-K1 [nM] (cAMP, AlphaScreen)” value (“EC50 hGCGR CHO-K1 [nM]” for short) in assay [2] came to 0.12 nM. Moreover, the “EC50 hGLP-1R CHO-K1 [nM] (cAMP, AlphaScreen)” value (“EC50 hGLP-1R CHO-K1 [nM]” below) in assay [3] came out at 0.27 nM. The “EC50 [nM] (cAMP in murine insulinoma cell line)” value in assay [4] is 0.35 nM. In addition, the “EC50 [nM] (inhibition of glycogen synthesis rate in primary rat hepatocytes)” value in assay [5] amounted to 0.75 nM.

With H-HAQGTFTSDYSKYLDEK([γGlu-Palmitoyl])AAKDFIEWLESA-NH2 [Compound 11: H-HAQGTFTSDYSKYLDE-K(Hexadecanoyl-isoGlu)-AAKDFIEWLESA-NH2], the “EC50 hGCGR CHO-K1 [nM]” value in assay [2] is 0.69 nM. For the same molecule, the “EC50 hGLP-1R CHO-K1 [nM]” value in assay [3] stood at 0.14 nM.

B2: Compound 12: H-H-DAla-QGTFTSDYSKYLDE-K(Hexadecanoyl-isoGlu)-AAKDFIEWLESA-NH2 (peptide)
peptide: HXQGTFTSDYSKYLDEKAAKDFIEWLESA
modifications: position 2 is DAla (D-alanine); Lys17 side chain conjugated to hexadecanoyl-isoGlu; C-terminal amide (NH2)
In the case of B2, the “EC50 hGCGR CHO-K1 [nM]” value in assay [2] is 1.27 nM. In assay [3], the “EC50 hGLP-1R CHO-K1 [nM]” value was 0.14 nM.

For H-H[Ac4c]HGTFTSDYSKYLDEK([γGlu-Palmitoyl])AAKDFIEWLESA-NH2 [Compound 15: H-H-Ac4c-HGTFTSDYSKYLDE-K(Hexadecanoyl-isoGlu)-AAKDFIEWLESA-NH2], the “EC50 hGCGR CHO-K1 [nM]” value in assay [2] was found to be 0.1 nM. The “EC50 [nM] (inhibition of glycogen synthesis rate in primary rat hepatocytes)” value in assay [5] is 0.05 nM.

In the case of H-HAQGTFTSDYSKYLDSK([γGlu-Palmitoyl])AAHDFVEWLLSA-NH2 [Compound 1: H-HAQGTFTSDYSKYLDS-K(Hexadecanoyl-isoGlu)-AAHDFVEWLLSA-NH2], the “EC50 hGLP-1R CHO-K1 [nM]” value in assay [3] was 0.52 nM. The “EC50 [nM] (cAMP in murine insulinoma cell line)” value in assay [4] was found to be 0.12 nM.

B3: Compound 6: H-HAHGTFTSDYSKYLDS-K(Hexadecanoyl-isoGlu)-AAHDFVEWLLSA-NH2 (peptide)
peptide: H-HAHGTFTSDYSKYLDSK([γGlu-Palmitoyl])AAHDFVEWLLSA-NH2
SMILES: CCCCCCCCCCCCCCCC(=O)N[C@@H](CCC(=O)NCCCC[C@H](NC(=O)[C@H](CO)NC(=O)[C@H](CC(=O)O)NC(=O)[C@H](CC(C)C)NC(=O)[C@H](Cc1ccc(O)cc1)NC(=O)[C@H](CCCCN)NC(=O)[C@H](CO)NC(=O)[C@H](Cc1ccc(O)cc1)NC(=O)[C@H](CC(=O)O)NC(=O)[C@H](CO)NC(=O)[C@@H](NC(=O)[C@H](Cc1ccccc1)NC(=O)[C@@H](NC(=O)CNC(=O)[C@H](Cc1c[nH]cn1)NC(=O)[C@H](C)NC(=O)[C@@H](N)Cc1c[nH]cn1)[C@@H](C)O)[C@@H](C)O)C(=O)N[C@@H](C)C(=O)N[C@@H](C)C(=O)N[C@@H](Cc1c[nH]cn1)C(=O)N[C@@H](CC(=O)O)C(=O)N[C@@H](Cc1ccccc1)C(=O)N[C@H](C(=O)N[C@@H](CCC(=O)O)C(=O)N[C@@H](Cc1c[nH]c2ccccc12)C(=O)N[C@@H](CC(C)C)C(=O)N[C@@H](CC(C)C)C(=O)N[C@@H](CO)C(=O)N[C@@H](C)C(N)=O)C(C)C)C(=O)O
Turning to B3, the “EC50 hGCGR CHO-K1 [nM]” value in assay [2] worked out at 0.83 nM. In assay [3], the “EC50 hGLP-1R CHO-K1 [nM]” value turned out to be 0.62 nM. The “EC50 [nM] (cAMP in murine insulinoma cell line)” value in assay [4] was determined as 0.4 nM. Also, in assay [5], the “EC50 [nM] (inhibition of glycogen synthesis rate in primary rat hepatocytes)” value worked out at 0.87 nM.

B4: Compound 3: H-H-Ac3c-QGTFTSDYSKYLDS-K(Hexadecanoyl-isoGlu)-AAHDFVEWLLSA-NH2 (peptide)
peptide: H-H[Ac3c]QGTFTSDYSKYLDSK([γGlu-Palmitoyl])AAHDFVEWLLSA-NH2
SMILES: CCCCCCCCCCCCCCCC(=O)N[C@@H](CCC(=O)NCCCC[C@H](NC(=O)[C@H](CO)NC(=O)[C@H](CC(=O)O)NC(=O)[C@H](CC(C)C)NC(=O)[C@H](Cc1ccc(O)cc1)NC(=O)[C@H](CCCCN)NC(=O)[C@H](CO)NC(=O)[C@H](Cc1ccc(O)cc1)NC(=O)[C@H](CC(=O)O)NC(=O)[C@H](CO)NC(=O)[C@@H](NC(=O)[C@H](Cc1ccccc1)NC(=O)[C@@H](NC(=O)CNC(=O)[C@H](CCC(N)=O)NC(=O)C1(NC(=O)[C@@H](N)Cc2c[nH]cn2)CC1)[C@@H](C)O)[C@@H](C)O)C(=O)N[C@@H](C)C(=O)N[C@@H](C)C(=O)N[C@@H](Cc1c[nH]cn1)C(=O)N[C@@H](CC(=O)O)C(=O)N[C@@H](Cc1ccccc1)C(=O)N[C@H](C(=O)N[C@@H](CCC(=O)O)C(=O)N[C@@H](Cc1c[nH]c2ccccc12)C(=O)N[C@@H](CC(C)C)C(=O)N[C@@H](CC(C)C)C(=O)N[C@@H](CO)C(=O)N[C@@H](C)C(N)=O)C(C)C)C(=O)O
B4: in assay [2], the “EC50 hGCGR CHO-K1 [nM]” value came to 0.62 nM. For the same molecule, the “EC50 [nM] (cAMP in murine insulinoma cell line)” value in assay [4] is 0.27 nM. In addition, the “EC50 [nM] (inhibition of glycogen synthesis rate in primary rat hepatocytes)” value in assay [5] was 3.27 nM.
